Data: publication PMC3848460

Tests used:
[1] = target: T1, SYP42 (Arabidopsis thaliana) (UniProt Q9SWH4)
T1 sequence: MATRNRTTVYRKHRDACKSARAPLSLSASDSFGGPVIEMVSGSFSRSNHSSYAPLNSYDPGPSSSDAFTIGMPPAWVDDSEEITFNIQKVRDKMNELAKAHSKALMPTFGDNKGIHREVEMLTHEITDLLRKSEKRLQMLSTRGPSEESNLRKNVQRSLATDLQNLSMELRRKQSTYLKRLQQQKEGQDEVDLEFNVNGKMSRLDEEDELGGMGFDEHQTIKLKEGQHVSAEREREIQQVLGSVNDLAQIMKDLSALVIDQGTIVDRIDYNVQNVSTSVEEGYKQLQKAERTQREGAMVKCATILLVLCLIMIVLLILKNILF

[2] = target: T2, SYP43 (Arabidopsis thaliana) (UniProt Q9SUJ1)
T2 sequence: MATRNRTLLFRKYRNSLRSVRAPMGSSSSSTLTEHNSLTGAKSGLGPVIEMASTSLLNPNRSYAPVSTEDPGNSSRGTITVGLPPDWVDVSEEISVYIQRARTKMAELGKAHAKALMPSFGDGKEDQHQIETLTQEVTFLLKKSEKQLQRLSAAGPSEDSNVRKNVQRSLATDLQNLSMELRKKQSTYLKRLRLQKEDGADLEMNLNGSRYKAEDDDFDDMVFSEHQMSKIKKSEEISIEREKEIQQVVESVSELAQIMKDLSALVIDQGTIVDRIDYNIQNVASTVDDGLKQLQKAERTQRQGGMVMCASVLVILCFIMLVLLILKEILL

[3] = target: T3, SYP41 (Arabidopsis thaliana) (UniProt O65359)
T3 sequence: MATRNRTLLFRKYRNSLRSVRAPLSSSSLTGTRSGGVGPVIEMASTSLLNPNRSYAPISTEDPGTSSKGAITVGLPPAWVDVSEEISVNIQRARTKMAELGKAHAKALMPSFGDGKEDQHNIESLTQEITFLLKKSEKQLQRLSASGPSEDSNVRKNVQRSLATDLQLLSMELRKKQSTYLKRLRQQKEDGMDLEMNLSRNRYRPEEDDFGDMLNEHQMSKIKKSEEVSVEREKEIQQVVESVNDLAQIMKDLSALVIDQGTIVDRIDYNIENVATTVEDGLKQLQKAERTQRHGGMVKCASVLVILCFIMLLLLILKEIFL

soluble fragment of VTI12 (domain or fragment)
< 4%: NBD fluorescence increase (lipid mixing) of SYP42 acceptor vesicles with R-VTI11 donor vesicles after 30 min preincubation with YKT62 and VTI12s; pair blocked: m2 + m4 [1] | NBD fluorescence increase (lipid mixing) of SYP42 acceptor vesicles with R-VTI12 donor vesicles after 30 min preincubation with YKT62 and VTI12s; pair blocked: m2 + m5 [1] | NBD fluorescence increase (lipid mixing) of SYP43 acceptor vesicles with R-VTI11 donor vesicles after 30 min preincubation with YKT62 and VTI12s; pair blocked: m3 + m4 [2] | NBD fluorescence increase (lipid mixing) of SYP43 acceptor vesicles with R-VTI12 donor vesicles after 30 min preincubation with YKT62 and VTI12s; pair blocked: m3 + m5 [2] | NBD fluorescence increase (lipid mixing) of SYP41 acceptor vesicles with R-VTI11 donor vesicles after 30 min preincubation with YKT62 and VTI12s; pair blocked: m1 + m4 [3] | NBD fluorescence increase (lipid mixing) of SYP41 acceptor vesicles with R-VTI12 donor vesicles after 30 min preincubation with YKT62 and VTI12s; pair blocked: m1 + m5 [3]

B1: soluble fragment of VTI11 (domain or fragment)
chain: MSDVFDGYERQYCELSASLSKKCSSAISLDGEQKKQKLSEIKSGLENAEVLIRKMDLEARTLPPNLKSSLLVKLREFKSDLNNFKTEVKRITSGQLNAAARDELLEAGMADTKTASADQRARLMMSTERLGRTTDRVKDSRRTMMETEEIGVSILQDLHGQRQSLLRAHETLHGVDDNIGKSKKILTDMTRRMNKNKWTI
< 4%: NBD fluorescence increase (lipid mixing) of SYP42 acceptor vesicles with R-VTI11 donor vesicles after 30 min preincubation with YKT62 and VTI11s; pair blocked: m2 + m4 [1] | NBD fluorescence increase (lipid mixing) of SYP42 acceptor vesicles with R-VTI12 donor vesicles after 30 min preincubation with YKT62 and VTI11s; pair blocked: m2 + m5 [1] | NBD fluorescence increase (lipid mixing) of SYP43 acceptor vesicles with R-VTI11 donor vesicles after 30 min preincubation with YKT62 and VTI11s; pair blocked: m3 + m4 [2] | NBD fluorescence increase (lipid mixing) of SYP43 acceptor vesicles with R-VTI12 donor vesicles after 30 min preincubation with YKT62 and VTI11s; pair blocked: m3 + m5 [2] | NBD fluorescence increase (lipid mixing) of SYP41 acceptor vesicles with R-VTI11 donor vesicles after 30 min preincubation with YKT62 and VTI11s; pair blocked: m1 + m4 [3] | NBD fluorescence increase (lipid mixing) of SYP41 acceptor vesicles with R-VTI12 donor vesicles after 30 min preincubation with YKT62 and VTI11s; pair blocked: m1 + m5 [3]
